Data as given in patent US20170081417A1 (Kyowa Kirin, published 2017).
No end group written: not given here.

B1: recombinant 112V8G1 antibody (112V8 variable regions in human IgG1) (antibody, V domains shown)
VH: QITLKESGPTLVKPKQTLTLTCTFSGFSLSTSGMGVGWIRQPPGKALEWLAVIYWDDHQLYSPSLKSRLTITKDTSKNQVVLTMTNMDPVDTATYYCAHRRGAFQHWGQGTLVTVSS
VL: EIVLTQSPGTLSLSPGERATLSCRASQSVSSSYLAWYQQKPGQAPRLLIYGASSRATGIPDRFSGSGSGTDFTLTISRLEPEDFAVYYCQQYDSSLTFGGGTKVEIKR
B2: recombinant 112V8 IgG4PE antibody (112V8G4PE) (antibody, V domains shown)
VH: B1 VH
VL: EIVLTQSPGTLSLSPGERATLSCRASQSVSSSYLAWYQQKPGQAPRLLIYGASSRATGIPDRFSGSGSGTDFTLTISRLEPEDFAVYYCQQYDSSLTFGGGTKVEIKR
B3: 112V8 human anti-human OX40 monoclonal antibody (hybridoma ATCC No. PTA-7219) (antibody, IgG4, V domains shown)
VH: B1 VH
VL: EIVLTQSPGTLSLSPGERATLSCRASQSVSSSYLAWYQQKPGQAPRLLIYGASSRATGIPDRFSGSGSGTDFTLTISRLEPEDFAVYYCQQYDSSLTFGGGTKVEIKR
B4: 112Z5 human anti-human OX40 monoclonal antibody (hybridoma ATCC No. PTA-7216) (antibody, V domains shown)
VH: VVSTQSTGGGLVQPGRSLRLSCAASGFTLDDYGMHWVRQAPGKGLEWVSGISWNSDSIGYVDSVKGRFTISRDNAKNSLYLQMNSLRVEDTALYYCVKDISGWYSFDYWGQGTLVTVSS
VL: EIVLTQSPATLSLSPGERATLSCRASQSVSSYLAWYQQKPGQAPRLLIYDASNRATGIPARFSGSGSGTDFTLTISSLEPEDFAVYYCQQRSNWPITFGQGTRLEIK
B5: recombinant 112F32G1 antibody (112F32 variable regions in human IgG1) (antibody, V domains shown)
VH: GVQLVESGGGLVQPGGSLRLSCAASGFTFSSYSMNWVRQAPGKGLEWVSYISSSSSTIYYADSVKGRFTISRDNAKNSLYLQMNSLRDEDTAVYYCARGVYHNGWSFFDYWGQGTLLTVSS
VL: DIQMTQSPSSLSASVGNRVTITCRASQDISSWLAWYQQKPEKAPKSLIYAASSLQSGVPSRFSGSGSGTDFTLTISSLQPEDFATYYCQQYNSYPLTFGQGTRLEIKR
B6: 112F32 human anti-human OX40 monoclonal antibody (hybridoma ATCC No. PTA-7217) (antibody, V domains shown)
VH: B5 VH
VL: B5 VL

Key:
[1] = molecular target: T1, human OX40 (CD134), full length, expressed on cells (activated human T cells); EL4-OX40 and CHO-OX40 … (human, UniProt P43489 29-277); assay: cell-based or functional assay
T1 sequence: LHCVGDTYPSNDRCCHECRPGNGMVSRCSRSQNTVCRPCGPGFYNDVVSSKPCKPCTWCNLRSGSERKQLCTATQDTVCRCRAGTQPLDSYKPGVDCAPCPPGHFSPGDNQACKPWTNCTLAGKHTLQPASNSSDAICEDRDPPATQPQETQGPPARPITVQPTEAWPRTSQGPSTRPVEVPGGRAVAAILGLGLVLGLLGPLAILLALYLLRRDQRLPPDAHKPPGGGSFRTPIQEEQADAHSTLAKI

[2] = molecular target: T1, human OX40 (CD134), full length, …; assay: flow cytometry, blocking of OX40L-FLAG binding to activated human T cells
Source text: (§1) The activated T cells were also stained with mouse anti-human OX40 antibody L106 (Becton Dickinson), which was directly conjugated to phycoerythrin or whose binding was detected with anti-mouse IgG-PE (Southern Biotechnology Associates.) OX40L Blocking Assays: To determine if the anti-human OX40 antibodies could block OX40L binding to soluble OX40 both ELISA and flow cytometric protocols were used. In the ELISA 96 well Nunc flat bottom plates were coated with recombinant soluble hOX40:hFc at 2 μg/ml in carbonate buffer (pH9.4) for one hour at 37° C. The plates were washed with PBS/0.1% Tween 20 and Superblock (Pierce) was added to the wells to block non-specific binding. The test antibodies were diluted to 1 μg/ml in PBS/Tween and added to the plates. After one hour incubation at 37° C., FLAG tagged recombinant soluble human OX40L (Alexis Biochemicals, San Diego, Calif.) was added to the appropriate wells without washing out the anti-OX40 antibodies. Following one hour incubation, the plates were washed and an anti-FLAG-peroxidase conjugated antibody (Sigma) was added to the wells for one hour at 37° C. The TMB substrate was added, after ten minutes the reaction was stopped with H₂SO₄, and the results were read at 450 nm using a microplate reader. In the flow cytometric assay, human CD4+ T cells were purified and activated with PHA+IL2 for two days. The cells were washed and resuspended in staining buffer and then incubated with increasing amounts of human anti-human OX40 antibodies for twenty minutes on ice, from 0.005-50 μg/ml. Soluble recombinant OX40L-FLAG was then added to the cells. The cells were washed and incubated with anti-FLAG conjugated to PE (Sigma). After another wash, the cells were fixed with 1% paraformaldehyde and analyzed on a FACScan or FACScalibur.
(§2) Slightly different results were obtained when a flow cytometric based assay was used to monitor blockade of soluble OX40L binding to activated human T cells that express OX40 (FIG. 5B). Activated human T cells were labeled with anti-OX40 antibodies followed by soluble flag tagged-human OX40L. Binding of OX40L was detected with anti-FLAG-PE antibody. Percent inhibition was determined using the same formula, i.e., (100−(sample/maximum binding))*100.

[3] = molecular target: T2, human OX40 extracellular domain fused to the Fc portion of human IgG1 (hOX40:hFc) (human); assay: ELISA, blocking of OX40L-FLAG binding to coated hOX40:hFc
T2 construct: Made in Tn5 insect cells; also called OX40-hIgG1; human OX40:hIgG1 fusion protein
Experimental: (§3) The ability of 112F32, 112V8, 112Y131, 112Y55, and 112Z5 to block soluble hOX40L binding to coated hOX40:hFc fusion protein was tested using an ELISA protocol (FIG. 5A, Table 3). The plates were coated with hOX40:hFc and after blocking non-specific sites the anti-OX40 antibodies were allowed to bind. Without washing OX40L-FLAG was added to the wells. Bound ligand was detected with anti-FLAG-HRP secondary antibody. Percent inhibition was determined using the following formula (100−(OD sample/OD maximum OX40L binding))*100. 112V8, 112Y55, and 112Y131 prevented 85% of the binding of soluble OX40L to hOX40:hFc. 112F32 prevented approximately 70% of the binding of soluble hOX40L to hOX40:hFc and 112Z5 blocked 67% of the maximal binding.

[4] = molecular target: T1, human OX40 (CD134), full length, …; assay: flow cytometry titration on activated human T cells, anti-human IgG-PE
Experimental: as §1, with “Following twenty minute incubation on ice, the cells were washed once and fixed ten minutes with 1% paraformaldehyde. After a final wash the cells were resuspended in staining buffer and the samples were acquired using FACScan or FACS Calibur flow cytometers (Becton Dickinson Biosciences, Palo Alto, Calif.), and the data were analyzed using Cellquest (Becton Dickinson Biosciences) or Flow Jo (TreeStar, Inc., San Carlos, Calif.) software. The activated” for “The activated”

[5] = molecular target: T2, human OX40 extracellular domain fused …; assay: ELISA, OX40L-FLAG binding to coated hOX40:hFc, anti-FLAG-HRP
Experimental: as §3

[6] = molecular target: T3, human OX40 peptide 112B (human, also: conjugated to KLH via maleimide linker); assay: ELISA on coated KLH-conjugated peptide
T3 peptide: RAGTQPLDSYKPGVDC
Experimental: (§4) Antibody titers, specificity, and production by hybridomas were determined by ELISA. In brief, 96 well flat bottom plates were coated with 50 μl of hOX40:hFc at 5 μg/ml in carbonate buffer (pH 9.4) overnight at 4° C. or at 37° C. for one hour. After washing twice with PBS/0.1% Tween 20, plates were blocked with PBS/1% BSA/0.1% Tween20 at 37° C. for one hour. The serum, supernatant, or purified antibody was diluted in blocking buffer, added to the wells, and the plates were incubated for one hour at 37° C. The plates were washed four times with PBS/0.1% Tween 20 and the peroxidase conjugated sheep anti-human kappa detection antibody (The Binding Site, Birmigham, UK) was added at a dilution of 1:2000. Following one hour incubation at 37° C., the plates were washed and the TMB (Sigma) substrate was added and incubated at room temperature for ten to thirty minutes. The reaction was stopped with H₂SO₄ (LabChem) and the optical density was measured at 450 nm by a microplate reader.
(§5) The peptides were generated by A & A Lab, LLC and conjugated to keyhole limpet hemocyanin (“KLH”) with a maleimide linker following the manufacturer's instructions (Pierce). The peptides were coated at 10 μg/ml in carbonate buffer to 96 well Maxisorp ELISA plates (Nunc) at 4° C. overnight. The plate was washed with PBS/0.1% Tween 20 and then blocked with Casein buffer (Pierce) for three hours at room temperature. Candidate antibodies were added at 10 μg/ml diluted in 10% Casein in PBS/0.1% Tween 20. The remainder of the ELISA was performed as described for the OX40 specific antibody detection ELISA.

[7] = molecular target: T4, human OX40 peptide 112C (human, also: conjugated to KLH via maleimide linker); assay: ELISA on coated KLH-conjugated peptide
T4 peptide: LAGKHTLQPASNSSDAIC
Experimental: as §4, §5

[8] = molecular target: T5, human OX40 peptide 112A (human, also: conjugated to KLH via maleimide linker); assay: ELISA on coated KLH-conjugated peptide
T5 peptide: RPAGPGFYNDVVSSKPC
Experimental: as §4, §5

[9] = molecular target: T1, human OX40 (CD134), full length, …; assay: flow cytometry, blocking of OX40L-FLAG binding to activated human T cells; footnote: not inhibitory at 50 µg/ml
Source text: The activated T cells were also stained with mouse anti-human OX40 antibody L106 (Becton Dickinson), which was directly conjugated to phycoerythrin or whose binding was detected with anti-mouse IgG-PE (Southern Biotechnology Associates.) OX40L Blocking Assays: To determine if the anti-human OX40 antibodies could block OX40L binding to soluble OX40 both ELISA and flow cytometric protocols were used. In the ELISA 96 well Nunc flat bottom plates were coated with recombinant soluble hOX40:hFc at 2 μg/ml in carbonate buffer (pH9.4) for one hour at 37° C. The plates were washed with PBS/0.1% Tween 20 and Superblock (Pierce) was added to the wells to block non-specific binding. The test antibodies were diluted to 1 μg/ml in PBS/Tween and added to the plates. […] The TMB substrate was added, after ten minutes the reaction was stopped with H₂SO₄, and the results were read at 450 nm using a microplate reader. […] After another wash, the cells were fixed with 1% paraformaldehyde and analyzed on a FACScan or FACScalibur.
as §2, with “Activated human T cells were labeled with anti-OX40 antibodies followed by soluble flag tagged-human OX40L.” left out

Binder | ADCC % Lysis at 10 µg/ml [1] [%] | IC50 [2] [µg/mL] | IC50 [3] [µg/mL] | BMAX Geo Mean [4] | Kd [4] [nM] | percent inhibition of OX40L binding [5] [%] | binding result [6] | binding result [7] | binding result [8] | IC50 [9] [µg/mL]
B1 | 55.6 | – | – | – | – | – | – | – | – | –
B2 | 18 | – | – | – | – | – | – | – | – | –
B3 | – | 0.62 | 0.051 | 181 geometric mean fluorescence | 36 | 85 | no binding (tested: 10 µg/ml) | no binding (tested: 10 µg/ml) | no binding (tested: 10 µg/ml) | –
B4 | 35 | 14.7 | 0.081 | 118 geometric mean fluorescence | 11 | 67 | – | – | – | –
B5 | 37 | – | – | – | – | – | – | – | – | –
B6 | – | – | 0.65 | 104 geometric mean fluorescence | 13 | ~70 | no binding (tested: 10 µg/ml) | no binding (tested: 10 µg/ml) | no binding (tested: 10 µg/ml) | > 50
